We go through 1 substance from publication PMC6013482, “Conformational switching of the pseudokinase domain promotes human MLKL tetramerization and cell death by necroptosis” (Nature Communications, 2018).

The assay addresses E351K human MLKL (residues 2–471), recombinant (human) (UniProt Q8NB16).

Consider “E351K human MLKL (residues 2–471), recombinant (from UniProt Q8NB16 2-471) (natural protein)”, for which the liposome dye release (5(6)-carboxyfluorescein), 1 μM protein, with ATP (% maximum dye release) is 40 and the liposome dye release (5(6)-carboxyfluorescein), 1 μM protein, without ATP is 15 % of maximum.
